Reference: patent publication US20040191812, “Target-dependent transcription using deletion mutants of N4 RNA polymerase” (published 2004)

T1: N4 mini-vRNAP (His-tagged) (Bacteriophage N4, UniProt Q859P9 SEQ:34-1143)
T1 chain: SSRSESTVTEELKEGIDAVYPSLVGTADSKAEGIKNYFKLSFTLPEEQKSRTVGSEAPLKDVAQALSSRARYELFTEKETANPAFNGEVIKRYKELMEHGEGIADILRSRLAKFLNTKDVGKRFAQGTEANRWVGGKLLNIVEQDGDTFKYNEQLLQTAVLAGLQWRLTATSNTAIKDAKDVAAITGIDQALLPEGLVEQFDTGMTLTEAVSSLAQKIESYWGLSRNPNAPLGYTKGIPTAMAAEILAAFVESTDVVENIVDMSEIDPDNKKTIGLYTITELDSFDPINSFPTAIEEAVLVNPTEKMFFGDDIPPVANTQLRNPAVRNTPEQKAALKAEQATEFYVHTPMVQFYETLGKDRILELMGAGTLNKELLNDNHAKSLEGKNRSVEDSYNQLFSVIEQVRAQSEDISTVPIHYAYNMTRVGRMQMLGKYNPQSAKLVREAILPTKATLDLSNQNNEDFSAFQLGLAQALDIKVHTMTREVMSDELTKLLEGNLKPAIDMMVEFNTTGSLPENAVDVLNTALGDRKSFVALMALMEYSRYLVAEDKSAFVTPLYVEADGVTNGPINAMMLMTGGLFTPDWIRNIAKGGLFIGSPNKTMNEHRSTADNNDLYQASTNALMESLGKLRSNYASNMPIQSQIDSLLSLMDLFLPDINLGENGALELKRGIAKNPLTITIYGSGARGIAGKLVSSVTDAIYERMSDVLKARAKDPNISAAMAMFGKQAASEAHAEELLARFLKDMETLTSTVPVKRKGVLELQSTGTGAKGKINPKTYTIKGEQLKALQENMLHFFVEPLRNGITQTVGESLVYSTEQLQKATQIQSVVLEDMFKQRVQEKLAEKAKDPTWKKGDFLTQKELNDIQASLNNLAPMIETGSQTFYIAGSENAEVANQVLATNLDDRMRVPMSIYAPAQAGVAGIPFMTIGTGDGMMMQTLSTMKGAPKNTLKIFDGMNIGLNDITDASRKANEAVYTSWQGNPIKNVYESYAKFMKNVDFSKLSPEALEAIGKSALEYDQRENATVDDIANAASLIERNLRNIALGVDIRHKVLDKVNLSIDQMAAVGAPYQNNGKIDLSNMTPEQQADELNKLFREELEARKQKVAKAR

T2: N4 mini-vRNAP Y678F (Bacteriophage N4, UniProt Q859P9 SEQ:34-1143)
T2 chain: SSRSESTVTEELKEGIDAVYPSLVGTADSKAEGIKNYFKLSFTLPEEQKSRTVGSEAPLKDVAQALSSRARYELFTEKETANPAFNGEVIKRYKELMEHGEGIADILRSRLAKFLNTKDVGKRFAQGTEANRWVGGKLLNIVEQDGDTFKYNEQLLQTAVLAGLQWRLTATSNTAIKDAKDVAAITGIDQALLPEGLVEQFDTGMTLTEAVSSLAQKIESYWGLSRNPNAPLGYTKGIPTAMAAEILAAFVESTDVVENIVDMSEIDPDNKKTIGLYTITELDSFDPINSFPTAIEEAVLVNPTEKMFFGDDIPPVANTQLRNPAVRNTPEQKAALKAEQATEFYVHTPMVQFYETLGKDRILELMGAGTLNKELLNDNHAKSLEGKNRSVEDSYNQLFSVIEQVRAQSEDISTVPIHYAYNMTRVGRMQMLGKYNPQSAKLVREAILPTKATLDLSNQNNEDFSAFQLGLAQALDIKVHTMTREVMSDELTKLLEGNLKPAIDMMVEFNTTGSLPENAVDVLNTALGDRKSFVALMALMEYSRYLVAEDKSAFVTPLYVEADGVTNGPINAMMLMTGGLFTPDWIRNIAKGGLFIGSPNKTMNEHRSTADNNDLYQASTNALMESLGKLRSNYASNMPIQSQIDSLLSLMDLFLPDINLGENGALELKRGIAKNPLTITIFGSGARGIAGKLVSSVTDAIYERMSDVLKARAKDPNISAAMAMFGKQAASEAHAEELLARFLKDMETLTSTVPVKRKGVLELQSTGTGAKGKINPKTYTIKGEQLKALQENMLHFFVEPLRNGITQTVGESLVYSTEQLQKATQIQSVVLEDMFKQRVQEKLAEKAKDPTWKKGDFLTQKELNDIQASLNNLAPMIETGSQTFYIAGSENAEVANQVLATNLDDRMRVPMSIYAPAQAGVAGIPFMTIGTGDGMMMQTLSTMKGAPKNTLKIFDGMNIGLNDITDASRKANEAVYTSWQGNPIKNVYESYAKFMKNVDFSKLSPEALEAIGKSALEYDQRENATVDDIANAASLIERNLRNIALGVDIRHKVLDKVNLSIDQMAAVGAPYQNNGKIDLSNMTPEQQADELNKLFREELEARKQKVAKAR


Experiments:
[1] = molecular target: N4 mini-vRNAP K670A K670A (mini-vRNAP numbering) (Bacteriophage N4) (UniProt Q859P9); assay: filter; conditions: wild-type affinity; method inferred
[2] = molecular target: T1, N4 mini-vRNAP (His-tagged); assay: filter; wild-type affinity; UV crosslinks; conditions: tags: N-terminal hexahistidine (pBAD); label: 32P end-label; hairpin
Source text: To study the sequence determinants of promoter binding, 20 base-long promoter oligonucleotides, containing the wild-type vRNAP promoter P2 sequence and substituted at every position with a single 5-Iodo-dU, were used. Whenever substitutions were made in the stem, the corresponding pairing base was changed to A. These oligonucleotides were ³²P end-labeled and used to determine the enzyme's affinity for promoter DNAs by a filter binding assay and the ability to crosslink to mini-vRNAP upon UV irradiation at 320 nm.

N4 mini-vRNAP Y678F = molecular target: T2, N4 mini-vRNAP Y678F; assay: UV crosslinking as well as wild type; conditions: tags: N-terminal hexahistidine (pBAD); label: 32P end-label; hairpin

Molecule | binding signal (fold of wild type) [1] | binding result [2] | binding result (N4 mini-vRNAP Y678F)
TCCAAAAGAAGCGGAGCTTC [P2 wild-type 20-mer promoter oligo] | 1 |  | 
TCCAAAAGAAGCGGAGCTTC (ssDNA, 5-iodo-dU at +3 [1 (5-iodo-dU, promoter position +3)]) [P2 5-IdU at +3] |  | binds | binds
TCCAAAAGAAGCGTAGCTTC (ssDNA, 5-iodo-dU at -11 [14 (5-iodo-dU, promoter position -11)]) [P2 5-IdU at -11] |  |  | binds
TTCAAAAGAAGCGGAGCTTC (ssDNA, 5-iodo-dU at +2 [2 (5-iodo-dU, promoter position +2)]) [P2 5-IdU at +2] |  | binds | 
TCTAAAAGAAGCGGAGCTTC (ssDNA, 5-iodo-dU at +1 [3 (5-iodo-dU, promoter position +1)]) [P2 5-IdU at +1] |  | binds | 
